Reference: paper PMC11390681

System: F4 (K88) fimbriae on intact ETEC strain SP11 cells (Escherichia coli (ETEC-F4+, strain SP11))
Assay: whole-cell binding with qPCR quantification of eluted aptamer
Conditions: 138 mM NaCl, 20 mM Tris-HCl pH 7.4, 2.7 mM KCl, 1 mM CaCl2, 0.5 mM MgCl2, 0.1 mg/mL salmon sperm DNA, 30 min at 37 C, 500 rpm, washes with 0.05% Tween 20

Sequence | Kd (intact SP11 cells, about 10^8 CFU/mL, 1 mM CaCl2, 0.5 mM MgCl2) [µM] | Kd [µM]
CGTACGGTCGACGCTAGCACACTCTTTTGCTCGTGTTTTTGCCTGTTACATAAAATGAATCAGTGGATGTTTCCTTCTCACGTGGAGCTCGGATCC [Apt31] | 0.0818 | 
CGTACGGTCGACGCTAGCGGAGACCGTACCATCTGTTCGTGGAAGCGCTTTGCTCGTCCATTAGCCTTGTGCTCGTGCCACGTGGAGCTCGGATCC [Apt37] |  | 0.0508
